Biological target: the molecule itself
Assay: cryo-EM structure

B1: E. coli stringent starvation protein A (SspA), wild type (natural protein)
chain: MAVAANKRSVMTLFSGPTDIYSHQVRIVLAEKGVSFEIEHVEKDNPPQDLIDLNPNQSVPTLVDRELTLWESRIIMEYLDERFPHPPLMPVYPVARGESRLYMHRIEKDWYTLMNTIINGSASEADAARKQLREELLAIAPVFGQKPYFLSDEFSLVDCYLAPLLWRLPQLGIEFSGPGAKELKGYMTRVFERDSFLASLTEAEREMRLGRS
stoichiometry N: 2

Reference: article PMC7515715 (Nucleic Acids Research, 2020)
